From patent US20250163182A1 (Janssen / Centocor, published 2025) come the findings set out here.

The target of this experiment is T1, ENPP1 on CHOK1 cells (UniProt P22413 1-925, limits assumed).
T1 construct: whole, on cells; also called ectonucleotide pyrophosphatase/phosphodiesterase family member 1; CHO ENPP1 OE
T1 sequence (looked up): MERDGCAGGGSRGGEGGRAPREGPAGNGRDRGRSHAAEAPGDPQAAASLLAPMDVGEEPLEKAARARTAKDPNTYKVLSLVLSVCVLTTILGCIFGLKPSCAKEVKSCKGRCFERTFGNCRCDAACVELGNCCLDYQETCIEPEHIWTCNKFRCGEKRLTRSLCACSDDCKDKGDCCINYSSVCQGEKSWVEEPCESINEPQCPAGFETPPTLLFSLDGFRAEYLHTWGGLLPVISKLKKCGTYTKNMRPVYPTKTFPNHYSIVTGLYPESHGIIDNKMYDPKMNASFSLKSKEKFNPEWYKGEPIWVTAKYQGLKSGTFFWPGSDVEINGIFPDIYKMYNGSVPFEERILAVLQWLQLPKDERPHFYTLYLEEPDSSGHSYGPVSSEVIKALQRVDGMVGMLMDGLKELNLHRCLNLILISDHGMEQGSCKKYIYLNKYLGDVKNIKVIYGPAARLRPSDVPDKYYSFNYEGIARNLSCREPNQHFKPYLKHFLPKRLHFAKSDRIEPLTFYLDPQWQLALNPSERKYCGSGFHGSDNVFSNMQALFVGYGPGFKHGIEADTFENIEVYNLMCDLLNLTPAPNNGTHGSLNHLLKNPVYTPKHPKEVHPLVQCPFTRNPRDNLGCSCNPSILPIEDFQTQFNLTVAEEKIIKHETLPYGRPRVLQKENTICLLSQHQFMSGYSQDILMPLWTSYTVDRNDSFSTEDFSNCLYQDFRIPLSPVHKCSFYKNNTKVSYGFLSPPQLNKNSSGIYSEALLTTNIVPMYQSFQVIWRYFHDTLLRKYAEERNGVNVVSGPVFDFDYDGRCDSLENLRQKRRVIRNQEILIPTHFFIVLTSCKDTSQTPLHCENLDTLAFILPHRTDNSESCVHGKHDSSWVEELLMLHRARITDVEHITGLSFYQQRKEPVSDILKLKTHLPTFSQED
In words: flow cytometry on CHO cells overexpressing ENPP1. For orientation: In flow cytometry, cells or beads pass a laser one at a time.

B1: NPP3B815 (bispecific antibody, human IgG1, kappa, L234A L235A)
heavy 1: EIVLTQSPATLSASPGERVTLSCSASSSVSYMNWYQQKPGCAPRRWIYDSSKLASGVPARFSGSGSGRDYTLTISSLEPEDFAVYYCQQWSRNPPTFGGGTKVEIKGGGSGGSGGCPPCGGSGGQVQLVQSGAEVKKPGSSVKVSCKASGYTFTRSTMHWVKQAPGQGLEWIGYINPSSAYTNYNQKFQGRVTLTADKSTSTAYMELSSLRSEDTAVYYCASPQVHYDYAGFPYWGCGTLVTVSSEPKSSDKTHTCPPCPAPEAAGGPSVFLFPPKPKDTLMISRTPEVTCVVVSVSHEDPEVKFNWYVDGVEVHNAKTKPREEQYNSTYRVVSVLTVLHQDWLNGKEYKCKVSNKALPAPIEKTISKAKGQPREPQVYTLPPSREEMTKNQVSLWCLVKGFYPSDIAVEWESNGQPENNYKTTPPVLDSDGSFFLYSKLTVDKSRWQQGNVFSCSVMHEALHNHYTQKSLSLSPGK
heavy 2: EVQLVESGGGRVKPGGSLRLSCAASGFTFSDYSMNWVRQAPGKGLEWVSSISSISSYVKYADSVKGRFTMSRDNAKNSLFLQMNSLRDEDMAVYYCARGHYFDYWGQGTLVTVSSASTKGPSVFPLAPSSKSTSGGTAALGCLVKDYFPEPVTVSWNSGALTSGVHTFPAVLQSSGLYSLSSVVTVPSSSLGTQTYICNVNHKPSNTKVDKKVEPKSCDKTHTCPPCPAPEAAGGPSVFLFPPKPKDTLMISRTPEVTCVVVSVSHEDPEVKFNWYVDGVEVHNAKTKPREEQYNSTYRVVSVLTVLHQDWLNGKEYKCKVSNKALPAPIEKTISKAKGQPREPQVYTLPPSREEMTKNQVSLSCAVKGFYPSDIAVEWESNGQPENNYKTTPPVLDSDGSFFLVSKLTVDKSRWQQGNVFSCSVMHEALHNRFTQKSLSLSPGK
light: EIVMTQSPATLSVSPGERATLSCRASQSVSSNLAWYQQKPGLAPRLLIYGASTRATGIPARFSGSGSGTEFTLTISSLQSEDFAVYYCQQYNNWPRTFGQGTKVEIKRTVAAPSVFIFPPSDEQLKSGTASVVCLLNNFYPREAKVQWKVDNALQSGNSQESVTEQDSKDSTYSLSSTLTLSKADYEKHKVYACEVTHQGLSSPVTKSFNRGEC
notes: HC2 carries the NPP3B56 Fab and the hole T366S, L368A, Y407V; Fc with L234A, L235A, D265S; The CPPC linker cysteines form disulfides with engineered Cys at L42 and H105 (Chothia); also called NPP3B56×CD3B2030-N106A; ENPP3×CD3 (NPP3B815)
For the molecule B1, the binding result was “no binding (tested: 100 nM)”.
